This note sets out measurements from US20200140538A1 (INSTITUTE FOR BASIC SCIENCE, published 2020).

Changes are numbered by the printed parent chain.

Experiment [1] has as its target T1, human interleukin-2 (hIL-2) (human, UniProt P60568 21-153).
T1 construct: mature; The 133-residue length in the definition corresponds to the mature protein; also called human IL-2
The experiment in a line: SPR, Biacore T100; antibody immobilized on a CM5 chip by amine coupling, hIL-2 flowed as 2-fold dilutions from 100 nM. As for the experimental part:
For detection of hIL-2, […] was used. 900 RU (Rmax=90) of anti-hIL-2 clones were immobilized on a CM5 chip by amine coupling. A 2-fold dilution (100 nM) of hIL-2 was allowed to flow on the chip at a rate of 10 μl/min for 3 minutes, and then dissociation of the hIL-2 was monitored for 10 minutes.

A further experiment addresses T2, mouse IL-2 (mIL-2) (mouse, UniProt P04351 21-169).
T2 construct: Coated on the ELISA plate at 5 ug/ml
T2 sequence (looked up): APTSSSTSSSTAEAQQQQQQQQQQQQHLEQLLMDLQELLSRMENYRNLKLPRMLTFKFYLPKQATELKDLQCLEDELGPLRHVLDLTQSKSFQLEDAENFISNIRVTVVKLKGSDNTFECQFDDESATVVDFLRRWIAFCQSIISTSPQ
The experiment in a line: ELISA on plate coated with mIL-2 (5 µg/ml), titrated mAb, detection with anti-mouse IgG HRP or anti-rat IgG HRP. On the procedure:
In vivo mouse models were used to evaluate the therapeutic efficacy of a hIL-2/TCB2 mAb complex. […] First, the splenocytes of BALB/c mice immunized 3-4 times with hIL-2 over several weeks were fused with SP/2 myeloma cells. When the hybridoma colony was visualized, the culture supernatant was subjected to ELISA. 5 μg/ml of hIL-2 or mIL-2 was added to and mixed with PBS, and a total of 50 μl of the mixture was coated on an ELISA plate. Next, 200 μl of 10% FBS was added to the PBS and incubated at room temperature for 30 minutes in order to prevent non-specific binding, and a titrated dose of the monoclonal antibody was incubated for 30 minutes. The binding of the monoclonal antibody to the coated hIL-2 or mIL-2 was detected with anti-mouse IgG HRP or anti-rat IgG HRP. In each step, the plate was washed 3-5 times with 200 μl of PBS. As positive controls, commercially available monoclonal antibodies were used. As a positive control for hIL-2, Mab602 was used, and as positive controls for mIL-2, JES6-1 and S4B6 were used.

Experiment [2] addresses T1, human interleukin-2 (hIL-2). The experiment in a line: kinetic affinity for hIL-2, Set 1; method not given.
Experiment [3] has the same target. The experiment in a line: kinetic affinity for hIL-2, Set 1; method not given; Set 1.
The target is the same in experiment [4]. The experiment in a line: kinetic affinity for hIL-2, Set 2; method not given.
Experiment [5] shares this target. The experiment in a line: ELISA on plate coated with hIL-2 (5 µg/ml), titrated mAb, detection with anti-mouse IgG HRP or anti-rat IgG HRP. On the technique in general: ELISA stands for enzyme-linked immunosorbent assay.

One may read the Kd as a measure of binding affinity in units of concentration. Read a low Kd as tighter binding. The term koff denotes the first-order rate constant of dissociation. By kon is commonly meant the second-order rate constant of association. One may read the EC50 (read off the curve) as the concentration at which the effect is half-maximal.

T1 sequence (P60568 21-153): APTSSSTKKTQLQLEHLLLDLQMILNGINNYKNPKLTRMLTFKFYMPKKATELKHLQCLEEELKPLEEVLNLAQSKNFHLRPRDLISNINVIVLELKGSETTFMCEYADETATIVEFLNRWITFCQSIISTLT

B1: TCB2 monoclonal antibody (mouse TCB2) (antibody, V domains shown)
VH: EVQLQQSGAELARPGASVKLSCKASGYTFTTYWIQWVKQRPGQGLEWIGAIYPGDGDTRYIQNFKGKATLTADKSSSTAYMQLSSLASEDSAVYYCARSLATRGFYAMDYWGQGTSVTVSS
VL: DIVMTQSPASLSMAIGEKVTIRCITSTDIDDDMNWYQQKPGEPPKLLISEGNTLRPGVPSRFSSSGYGTDFVFTIENMLSEDVADYYCLQSDNLPYTFGGGTKLEIK
notes: Mouse hybridoma antibody from BALB/c mice immunized with hIL-2; It was detected with anti-mouse IgG HRP; also called TCB2 mAb; mTCB2
Turning to B1, in experiment [1], binding was characterised by a dissociation constant (Kd) of 0.0811 nM, the koff turned out to be 0.000419 s⁻¹ and the kon came out at 5.17e+06 M⁻¹ s⁻¹. Moreover, the binding result in the experiment with mouse IL-2 (mIL-2) was “no binding (tested: 10000 ng/ml)”.

B2: human chimeric TCB2 (antibody, human IgG2, kappa, V domains shown)
VH: B1 VH
VL: DIVMTQSPASLSMAIGEKVTIRCITSTDIDDDMNWYQQKPGEPPKLLISEGNTLRPGVPSRFSSSGYGTDFVFTIENMLSEDVADYYCLQSDNLPYTFGGGTKLEIKR
notes: The Fab region of TCB2 mAb was cloned into an IgG2 expression vector; also called hcTCB2
In experiment [2], B2 gave a Kd of 0.0717 nM and a koff of 0.00163 s⁻¹. The kon in experiment [3] came out at 2.27e+07 M⁻¹ s⁻¹. In addition, in experiment [4], binding was characterised by a dissociation constant (Kd) of 0.0616 nM, the off-rate (koff) turned out to be 0.00141 s⁻¹ and the kon amounted to 2.29e+07 M⁻¹ s⁻¹.

B3: S4B6 (antibody, V domains shown)
VH: EVQLQESGAELVRPGTSVKLSCKVSGDTITAYYLHFVRQRPGQGLEWIGRIDPEDDSTKYAENFKNKATFTADASSNTAYLRLSSLTSEDTATYFCTTVTFYYSRELRWFAYWGQGTLVTVSS
VL: DIQVTQSPASLSASLEEIVTITCQASQDIGNYLSWYQQKLGKSPQLLIHSATSLADGVPSRFSGSRSGTQYSLKINRLQVEDTGIYYCLQHYSTPYTFGAGTKLELK
For B3, the 50% effective concentration (EC50 (read off the curve)) with mouse IL-2 (mIL-2) was approximately 0.3 µg/mL.

B4: humanized TCB2 clone VH1+VL2 (antibody, V domains shown)
VH: QVQLVQSGAEVKKPGASVKVSCKASGYTFTTYWIQWVRQAPGQGLEWMGAIYPGDGDTRYIQNFKGRVTMTRDTSTSTVYMELSSLRSEDTAVYYCARSLATRGFYAMDYWGQGTLVTVSS
VL: DIVMTQSPSSLSASVGDRVTIRCITSTDIDDDMNWYQQKPGKAPKLLISEGNTLRPGVPSRFSGSGYGTDFTFTISSLQPEDIADYYCLQSDNLPYTFGGGTKLEIK
notes: Humanized and expressed with human IgG1 Fc; also called VL2+VH1; hnTCB2
On to B4, for which, in experiment [2], binding was put at a Kd of 0.104 nM, the koff turned out to be 0.00197 s⁻¹ and the kon was 1.89e+07 M⁻¹ s⁻¹.

B5: humanized TCB2 clone VH2+VL2 (antibody, V domains shown)
VH: B4 VH with V20L, R38K, M48I, R72A
VL: B4 VL
notes: Humanized and expressed with human IgG1 Fc; also called VL2+VH2; hnTCB2
In experiment [2], B5 returned a Kd of 0.275 nM, a koff of 0.00463 s⁻¹ and a kon of 1.68e+07 M⁻¹ s⁻¹.

B6: humanized TCB2 clone AH03463 (VL03463+VH03463) (antibody, V domains shown)
VH: B4 VH with Q1E, R38K
VL: B4 VL with V3Q, R22T, S49Y, G64S, Y67S, D85T
notes: Humanized and expressed with human IgG1 Fc; also called hnTCB2
In the case of B6, in experiment [4], the dissociation constant Kd turned out to be 0.198 nM, the off-rate constant (koff) amounted to 0.00418 s⁻¹ and the kon came out at 2.11e+07 M⁻¹ s⁻¹.

B7: MAB602 (antibody, from another filing, V domains shown)
VH: EVQLQESGPGLVAPSQSLSITCTVSGFSLTNYDISWIRQPPGKGLEWLGVIWTGGGTNYNSGFMSRLSITKDNSKSQVFLKMNSLQTDDTAIYYCVRQGRTPYWGQGTLVTVSA
VL: DIQVTQSPSSLSVSLGDRVTITCKASKDIYNRLAWYQQKPGNAPRLLISGATSLETGVPSRFSGSGSGKDYTLTITSLQTEDVATYYCQQFWGTPYTFGGGTKLEIKR
In experiment [1], B7 registered a dissociation constant (Kd) of 0.213 nM, a koff of 0.000948 s⁻¹ and a kon of 4.43e+06 M⁻¹ s⁻¹. Also, in the experiment with mouse IL-2 (mIL-2), the concentration giving a half-maximal response (EC50 (read off the curve)) amounted to 0.03 µg/mL. In addition, the concentration for a half-maximal effect (EC50 (read off the curve)) in experiment [5] turned out to be 0.04 µg/mL.
